Publication PMC11002074, “Lysyl oxidase-like 4 promotes the invasiveness of triple-negative breast cancer cells by orchestrating the invasive machinery formed by annexin A2 and S100A11 on the cell surface” (Frontiers in Oncology, 2024)

Molecular target: T1, GST-annexin A2 (human, UniProt P07355 1-339)
T1 construct: annexin A2 (ANXA2), human cDNA cloned into pGEX6P1; also called GST-ANXA2; source: E. coli, purified (glutathione beads)
Assay: far-Western, overlay or dot blot; purified proteins (10 µg) dot-blotted on nitrocellulose in duplicate; incubated with bio-PLG (10 µg) together with S100A11 (10 µg); 1 mM Ca2+, 50 mM Tris-HCl pH 7.4; detected with streptavidin-HRP or anti-S100A11
Settings: both partners purified

T1 sequence (P07355 whole entry): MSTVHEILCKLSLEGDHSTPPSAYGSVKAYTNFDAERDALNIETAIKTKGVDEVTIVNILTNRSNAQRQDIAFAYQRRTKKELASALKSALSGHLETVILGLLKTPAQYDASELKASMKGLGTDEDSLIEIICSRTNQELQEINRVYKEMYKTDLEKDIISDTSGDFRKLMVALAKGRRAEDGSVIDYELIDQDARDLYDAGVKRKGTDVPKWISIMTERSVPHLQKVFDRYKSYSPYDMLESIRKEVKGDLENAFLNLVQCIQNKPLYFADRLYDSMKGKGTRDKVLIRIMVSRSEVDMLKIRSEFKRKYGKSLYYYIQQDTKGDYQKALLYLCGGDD

- binding result: binds
B1: S100A11 (recombinant, GST cleaved) (natural protein, human, UniProt P31949 1-105, looked up)
chain: MAKISSPTETERCIESLIAVFQKYAGKDGYNYTLSKTEFLSFMNTELAAFTKNQKDPGVLDRMMKKLDTNSDGQLDFSEFLNLIGGLAMACHDSFLKAVPSQKRT
notes: S100A11, human cDNA cloned into pGEX6P1; source: E. coli, purified (glutathione beads), GST cleaved by PreScission Protease and removed
